We go through 5 compounds from patent US20030220254A1, “Composition and method for preparation of an oral dual controlled release formulation of a protein and inhibitor” (TEXAS TECH UNIVERSITY SYSTEM, priority 2002, published 2003).

Read-outs that look alike come from different tables or passages of the source.

In data set [1] the target is T1, trypsin (Bos taurus, UniProt P00760).
T1 construct: gene PRSS1
T1 sequence (P00760 24-246): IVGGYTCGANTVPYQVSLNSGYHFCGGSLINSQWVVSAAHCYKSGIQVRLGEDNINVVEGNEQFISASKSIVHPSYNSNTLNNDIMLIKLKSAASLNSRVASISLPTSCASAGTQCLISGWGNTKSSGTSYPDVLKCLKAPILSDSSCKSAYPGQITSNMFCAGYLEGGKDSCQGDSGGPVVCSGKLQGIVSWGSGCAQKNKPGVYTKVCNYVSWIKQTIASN
Put plainly: Stability of sCT in the presence of trypsin and protease inhibitors. Type of data set: biochemical. The procedure:
(§1) sCT solutions (50 μM) were incubated at 37° C. in 50 mM Tris buffer containing 0.1 mM calcium chloride (pH 8.0). Degradation profiles generated in the presence of 0.5 μM trypsin and 0.1 μM α-chymotrypsin served as controls. The concentrations were selected on the basis of a reported study (Schilling R. J. and Mitra A. K. 1991). DkOVM and TkOVM were evaluated at different enzyme-to-inhibitor ratios to evaluate their inhibition of sCT degradation. CkOVM and aprotinin were used at 1:1 enzyme-to-inhibitor ratio in order to compare the efficacy of various protease inhibitors used. sCT and enzyme solutions were incubated for 15 min at 37° C. before starting the experiments. Samples were taken after 0, 5, 15, 30 and 60 min and immediately diluted with cold 1% trifluoroacetic acid (TFA) to reduce the pH to 2.5. The samples were analysed at 4° C. by HPLC given below. Plots of sCT remaining against time were generated. […] (amount of sCT (%) remaining after 60 min) were used to compare the efficacy of the ovomucoids. Similar studies were performed with aprotinin. The study was also conducted by incubating 50 μM sCT solutions with 0.5 μM trypsin and 0.1 μM α-chymotrypsin added together and the efficacy of TkOVM was evaluated at various ratios.
(§2) sCT was analyzed by means of our validated HPLC method (Shah R B, et al., 2003). Briefly, a computer controlled Varian Chromatography workstation consisting of the following components was used: Two Dynamax SD-200 pumps, an AI-200A autosampler fitted with a 100 μl injection loop, a Dynamax UV-1 detector and Star 5.3 chromatography software. Room temperature was maintained for the column and chromatographic separations were carried out on a C-18 Vydac 218MS54 column (5 μm, 4.6×250 mm) with a pore size of 300 Å. 50 μl of samples were injected into the column which were analyzed by the reversed phase HPLC method. The mobile phase consisted of 0.05% v/v TFA-Water (A) and 0.05% v/v TFA-Acetonitrile (B). The gradient conditions were 20-35% B for 10 min, 35-37% B from 10th to 20th min and 37-20% B from 20th to 25th min at a flow rate of 1 ml/min. […] Concentrations of sCT were quantified from integrated peak areas and calculated by interpolation from an according standard curve.

Data set [2] has as its target T1, trypsin. The data set can be described thus: trypsin mediated degradation of insulin with inhibitors (HPLC). Type of data set: biochemical. The following applies: trypsin 0.5 μM. The procedure: (§3) Stability studies in the presence of chicken and duck ovomucoid were conducted. […] The degradation profiles were generated in the presence of 0.1 μM α-chymotrypsin and 0.5 μM trypsin over a period of 60 minutes that served as controls. These concentrations were selected based on a reported study (Schilling & Mitra 1991).
Samples were taken at 0, 5, 15, 30 and 60 minutes and immediately diluted with cold 1% TFA/TRIS to reduce the pH to 2.5. The samples were analyzed at 4° C. by a reverse-phase HPLC method using a Varian Chromatography Workstation. Plots of insulin remaining versus time were generated. […] Similar studies were performed with aprotinin.

Data set [3] has as its target T2, α-chymotrypsin (Bos taurus, UniProt P00766). The data set can be described thus: Stability of sCT in the presence of α-chymotrypsin and protease inhibitors. The data set is classed as biochemical. The procedure:
as §1, §2

For data set [4], the target named is T2, α-chymotrypsin. The data set can be described thus: α-chymotrypsin mediated degradation of insulin with inhibitors (HPLC). Type of data set: biochemical. The procedure:
as §3
Samples were taken at 0, 5, 15, 30 and 60 minutes and immediately diluted with cold 1% TFA/TRIS to reduce the pH to 2.5. The samples were analyzed at 4° C. by a reverse-phase HPLC method using a Varian Chromatography Workstation. […] Similar studies were performed with aprotinin.
The protocol used was the same as above with minor modifications. […] The degradation profiles were generated in the presence of α-chymotrypsin and DkOVM. The enzyme to inhibitor ratio used was 1:1 with respect to α-chymotrypsin.

For data set [5] the following is noted: cited from earlier work.
Data set [6] concerns the target T2, α-chymotrypsin. The data set can be described thus: Insulin stability in Krebs bicarbonate buffer with α-chymotrypsin and DkOVM over 3 hours. Type of data set: biochemical. The note with it: absence of DkOVM. The procedure: The degradation profiles were generated in the presence of 0.5 μM α-chymotrypsin over a period of 3 hours that served as controls. […] Samples were taken up to 180 min and immediately diluted with cold 1% TFA/TRIS to reduce the pH to 2.5. The samples were analyzed by the RP-HPLC method reported earlier.

In data set [7] the test system is rat GIT segments. The following applies: cited from earlier work; for Papp × 10^7 cm/sec of insulin: Rat, Everted gut sac.
The subject of data set [8] is rat GIT segments. The following applies: cited from earlier work; for Papp × 10^7 cm/sec of insulin: Rat, Ussing technique.
The subject of data set [9] is apical epithelium. The note with it: Stoll et al. 2000; cited from earlier work.
For data set [10] the following is noted: in vivo; cited from earlier work.
Data set [11] relates to rat intestinal segments. The data set can be described thus: Insulin transport across rat intestinal segments (side-by-side diffusion apparatus). The source says: (§4) Male Sprague Dawley rats weighing between 200-300 g were used for the permeability experiments. The intestine was excised and the jejunum was isolated by a reported method (Asada et al. 1995). Briefly, the duodenal and ileal segments were removed from top and bottom (13 cm on either side) and the residual intestine was designated as jejunum. The respective segments were mounted in a Navicyte Side-By-Side diffusion apparatus with accessories such as water circulator, flowmeter and humidifier.
(§5) The segments were mounted without stripping on a preheated acrylic half-cell and the cell assembly was then placed in a heated block after joining the other half-cell. The exposed surface area was 1.78 cm^2 and the reservoir volume was 6 mL. The donor and receiver compartments were immediately filled with pre-warmed oxygenated Krebs bicarbonate buffer adjusted to pH 7.4 with NaOH or HCl. The composition of buffer used is shown in Table 11, which illustrates the composition of stock solutions used for preparation of Krebs Bicarbonate solution. The stock solutions can be made in 100 mL or 1 L volume and stored in a refrigerator for one month. For preparation of working buffer, 50 mL of each stock solution above is added to a 1 L volumetric flask containing 750 mL of water. The pH was adjusted to 7.4 when necessary.
The mucosal buffer consisted of 40 mM mannitol and the serosal buffer consisted of 40 mM glucose. […] Mannitol equalizes the osmotic load between the mucosal and […] buffers and glucose helps to maintain tissue viability. The buffer was circulated by a gas lift (95%O2/5%CO2). The flow rate of gas lift was adjusted to 10±2 mL/min using a flow meter. The tissues were equilibrated for 10 min before the drug solution was added.
For the marker studies, the concentration of ^14C mannitol in donor compartment was 3.5×10^−5 μM and that of H testosterone was 4×10^−2 μM. The integrity of the tissues was determined by calculating the permeability coefficient (Papp) of mannitol. For α-chymotrypsin studies, the enzyme was added immediately after the addition of drug and inhibitor solution to achieve a final concentration of 0.5 μM. Samples (1 mL) were taken from the serosal side at various times up to 180 min and replaced with fresh transport medium. Aliquots of 10 μL were taken from the mucosal side at the beginning and end of the experiment and analyzed by a HPLC method discussed later. […] The radioactive samples were analyzed by using a liquid scintillation counter.
(§6) The results of experiments performed at least in triplicate are presented as mean±SE. Statistical differences between permeability in the presence of DkOVM and CkOVM and the means were determined by one-way analysis of variance (ANOVA). […]

For data set [12], the system named is rat jejunum. Put plainly: in vitro.
From the text: as §4
as §5, with “necessary. […]” for “necessary.”
(§7) For the marker studies, the concentration of ^14C mannitol in donor compartment was 3.5×10^−5 μM and that of H testosterone was 4×10^−2 μM. The integrity of the tissues was determined by calculating the permeability coefficient (Papp) of mannitol. […] Aliquots of 10 μL were taken from the mucosal side at the beginning and end of the experiment and analyzed by a HPLC method discussed later. […] The radioactive samples were analyzed by using a liquid scintillation counter.
as §6

Data set [13] can be described thus: in vitro. The note with it: male, Sprague Dawley, rat, pH 7.4.
From the text: as §4
as §5, with “necessary. […]” for “necessary.”
as §7, §6

The mark [14] stands for this setting: chymotrypsin 0.1 μM, enzyme:inhibitor 1:1.

In the case of Aprotinin, the “Amount (%) of sCT remaining at 60 min (I60)” value in data set [1] (trypsin 0.5 μM, enzyme:inhibitor 1:1) amounted to 83.36 ± 8.92%; in data set [3] (setting [14]) it was 35.87 ± 1.06%. Moreover, the “Ratio (half-life versus trypsin alone)” value in [1] (trypsin:inhibitor 1:1) was 199.34. For the same compound, the entries for the “% I60 min (insulin remaining at 60 minutes)” value in [2] (enzyme:inhibitor 1:1) and in [4] (setting [14]) were 97.99 ± 0.08% and 69.65 ± 6.04%, respectively. Moreover, the “Ratio (half-life versus α-chymotrypsin alone)” value in data set [3] (α-chymotrypsin:inhibitor 1:1) was determined as 1.82.

On to `C[C@H](CCC(=O)NCC(=O)[O-])[C@H]1CC[C@H]2[C@@H]3[C@H](O)C[C@@H]4C[C@H](O)CC[C@]4(C)[C@H]3C[C@H](O)[C@]12C.[Na+]` [NaGC, sodium glycocholate], for which the “% I60 min (insulin remaining at 60 minutes)” value in data set [4] (chymotrypsin + 30 mM NaGC, no inhibitor) is listed as 4.66 ± 0.8%.

With `O=C(O)CN(CCN(CC(=O)O)CC(=O)O)CC(=O)O` [EDTA], the “% I60 min (insulin remaining at 60 minutes)” value in data set [4] (chymotrypsin + 0.5 mM EDTA, no inhibitor) stood at 0.32 ± 0.33%.

As to insulin, the peak time in data set [5] (pulmonary route) is 5 to 60 min; in [5] (subcutaneous route), 6 to 150 min. Moreover, the “insulin (%) remaining at the end of 3 hours” value in data set [6] is reported as “negligible”. In addition, the “Papp × 10^7 cm/sec of insulin” value in data set [7] (Duodenum) is listed as 0.78 ± 0.54 × 10^7 cm/sec; in data set [7] (Ileum), 1.54 ± 0.29 × 10^7 cm/sec; in data set [7] (Jejunum), 1.385 ± 0.265 × 10^7 cm/sec; in [8] (Colon) it was 4.05 ± 1.09 × 10^7 cm/sec; in [8] (Duodenum) it was 4.85 ± 0.99 × 10^7 cm/sec; in data set [8] (Jejunum), 12.27 ± 1.73 × 10^7 cm/sec. The “reported Papp of insulin from rat jejunum” value in data set [7] (Schilling & Mitra 1990) is given as 5±2 ×10^−7 cm/sec; in [8] (Asada et al. 1995), 12.27±1.73 ×10^−7 cm/sec. Further, the “% I60 min (insulin remaining at 60 minutes)” value in data set [2] (no inhibitor) was determined as 68.79 ± 1.85%; in data set [4] (insulin 18 μM alone, no enzyme) it was 100%. Further, the “apical epithelial permeability of insulin” value in data set [9] was 0.032 ×10⁻⁶ cm/s. For the same compound, the “insulin reaching the liver via the portal vein that undergoes degradation” value in data set [10] is on record as “About 50%”. In [11] (jejunum), the “cumulative amount of insulin permeated at the end of three hours” value stood at 0.04±0.023 IU. Also, the “Permeability of insulin (P × 10^7 cm/sec)” value is on record as 0.0 × 10^7 cm/sec in data set [11] (rat jejunum, insulin 100 μM + α-chymotrypsin 0.5 μM + DkOVM 0.0 μM) and 0.922 ± 0.168 × 10^7 cm/sec in data set [11] (rat jejunum, insulin 100 μM alone). For the same compound, the Papp of insulin in data set [11] (rat jejunum, insulin alone) is reported as 0.922±0.168 ×10^−7 cm/sec. The “insulin degraded in 60 minutes” value in data set [4] (α-chymotrypsin, control without inhibitor) is reported as “more than 90%”.

Turning to `OC[C@@H](O)[C@@H](O)[C@H](O)[C@H](O)CO` [^14C Mannitol, D-[1-^14C] mannitol], in data set [12], the “^14C Mannitol Permeability × 10^6 cm/sec” value was 3.465 ± 0.251 × 10^6 cm/sec. The “^14C Mannitol Ratio” value in data set [12] (male, Sprague Dawley, rat, 180 min, pH 7.4) is 1.0. In data set [13], this compound came in with a Papp at 180 min of 3.46 ± 0.251 ×10⁻⁶ cm/s.

As usually defined, the Papp is a coefficient for how fast a substance crosses the barrier. A high value points to fast passage.
